Laboratory results from US6716597 (MIT, dated 2004).

T1: vinculin (endogenous, in Rat2 fibroblasts) (rat (Rat2 fibroblasts), UniProt P85972 1-1066)
T1 construct: whole, on cells
T1 sequence: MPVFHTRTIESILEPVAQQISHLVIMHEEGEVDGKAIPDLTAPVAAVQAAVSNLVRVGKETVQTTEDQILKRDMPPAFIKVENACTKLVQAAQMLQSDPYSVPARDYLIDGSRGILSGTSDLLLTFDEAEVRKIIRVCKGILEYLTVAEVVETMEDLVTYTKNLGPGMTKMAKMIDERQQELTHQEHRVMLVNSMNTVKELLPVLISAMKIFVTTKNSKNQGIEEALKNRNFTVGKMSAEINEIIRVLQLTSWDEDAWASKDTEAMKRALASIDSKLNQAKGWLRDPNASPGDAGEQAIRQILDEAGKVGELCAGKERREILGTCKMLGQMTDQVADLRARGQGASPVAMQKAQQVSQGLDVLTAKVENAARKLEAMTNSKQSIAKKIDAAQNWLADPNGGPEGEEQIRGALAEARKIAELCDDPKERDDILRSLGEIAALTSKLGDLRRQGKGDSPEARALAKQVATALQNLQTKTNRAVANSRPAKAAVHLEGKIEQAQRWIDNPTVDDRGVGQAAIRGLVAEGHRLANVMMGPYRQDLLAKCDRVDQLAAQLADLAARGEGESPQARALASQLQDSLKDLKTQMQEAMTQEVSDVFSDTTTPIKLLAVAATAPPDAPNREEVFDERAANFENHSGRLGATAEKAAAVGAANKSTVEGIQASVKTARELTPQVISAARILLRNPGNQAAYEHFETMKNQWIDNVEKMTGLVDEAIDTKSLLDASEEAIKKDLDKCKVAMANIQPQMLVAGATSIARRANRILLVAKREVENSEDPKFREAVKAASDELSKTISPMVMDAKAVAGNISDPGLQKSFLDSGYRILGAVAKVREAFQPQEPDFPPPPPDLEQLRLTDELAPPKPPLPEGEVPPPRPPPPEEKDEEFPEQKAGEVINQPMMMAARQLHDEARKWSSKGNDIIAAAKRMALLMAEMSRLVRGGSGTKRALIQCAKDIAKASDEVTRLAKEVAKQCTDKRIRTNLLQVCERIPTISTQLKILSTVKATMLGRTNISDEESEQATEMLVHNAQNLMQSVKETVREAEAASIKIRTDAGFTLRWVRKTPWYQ

B1: FPPPP-mito (EGFP fused to ActA amino acids 231-610, four EVH1-binding FPPPP repeats and the mitochon (other)
chain: VNASDFPPPPTDEELRLALPETPMLLGFNAPATSEPSSFEFPPPPTDEELRLALPETPMLLGFNAPATSEPSSFEFPPPPTEDELEIIRETASSLDSSFTRGDLASLRNAINRHSQNFSDFPPIPTEEELNGRGGRPTSEEFSSLNSGDFTDDENSETTEEEIDRLADLRDRGTGKHSRNAGFLPLNPFASSPVPSLSPKVSKISAPALISDITKKTPFKNPSQPLNVFNKKTTTKTVTKKPTPVKTAPKLAELPATKPQETVLRENKTPFIEKQAETNKQSINMPSLPVIQKEATESDKEEMKPQTEEKMVEESESANNANGKNRSAGIEEGKLIAKSAEDEKAKEEPGNHTTLILAMLAIGVFSLGAFIKIIQLRKNN
notes: not shown: EGFP (enhanced green fluorescent protein, Clontech); the ActA portion is fused to its C-term
B2: VASP (endogenous, in Rat2 fibroblasts) (other)
chain: ETVICSSRATVMLYDDSNKRWLPAGTGPQAFSRVQIYHNPTANSFRVVGRKLQPDQQVVINCAIIRGVKYNQATPIFHQWRDARQVWGLNFGSKEDAAQFAIGMANALEALEGGGPPPAPAPPAWSTQNGPSPEELEQQKRQPEHLERRVSNAGGPPAPPAGGPPPPPGPPPPPGPPPPPGLPPSGVSGAGHGTGVAPPPAPPLPTAQGPSSGGSGAPGLAAAIAGAKLRKVSKEEASGGPLAPKAENSRGTGGGLMEEMNAMLARRRKATQVGEKPPKDESASQEESEARIPAQSEPVRRPWEKNSTTLPRMKSSSSVTTSEAHPSVPSSSDDSDLERVKQELVEEVRKELQKMKEEIIEVFVQELRKRGSP
notes: whole, on cells; also called vasodilator-stimulated phosphoprotein
B3: FPPPP-cyto (EGFP fused to ActA amino acids 231-360, without the mitochondrial targeting sequence) (other)
chain: VNASDFPPPPTDEELRLALPETPMLLGFNAPATSEPSSFEFPPPPTDEELRLALPETPMLLGFNAPATSEPSSFEFPPPPTEDELEIIRETASSLDSSFTRGDLASLRNAINRHSQNFSDFPPIPTEEEL
notes: not shown: EGFP (enhanced green fluorescent protein, Clontech)

Legend:
[1] = molecular target: T2, p34 component of the Arp2/3 complex (endogenous, in Rat2 fibroblasts) (rat (Rat2 fibroblasts), UniProt P85970 1-300); assay: immunofluorescence in FPPPP-mito Rat2 cells
T2 construct: whole, on cells

[2] = molecular target: T1, vinculin (endogenous, in Rat2 …); assay: immunofluorescence in FPPPP-mito Rat2 cells
[3] = molecular target: B1; assay: immunofluorescence co-localisation in Rat2 cells expressing the construct
[4] = molecular target: B2; assay: immunofluorescence in Rat2 cells expressing the construct

B1: no binding [1]; no binding [2].

B2: binds [3].

B3: binds [4].
